Residues, ends and D or L forms follow the SMILES beside them. *: point of attachment. Cbz = O=C(OCc1ccccc1)*; CH2F = FC*
Tests used:
QYC cells = experiment: Inhibition of huSM5-1 induced apoptosis by caspase inhibitors; assay type: cell-based, human; details: QYC cells incubated with caspase inhibitor at 50 mol/l for 2 h, then 50 ng/ml huSM5-1 antibody
Protocol: To determine whether caspase is involved in huSM5-1 antibody induced apoptosis, a variety of caspase inhibitors were tested to observe the inhibitory rate of apoptosis. The caspase inhibitors tested included common caspase inhibitor (Z-VAD-FMK), caspase-1 inhibitor (Z-WEHD-FMK), caspase-2 inhibitor (Z-VDVAD-FMK), caspase-3 inhibitor (Z-DEVD-FMK), caspase-4 inhibitor (Z-YVAD-FMK), caspase-6 inhibitor (Z-VEID-FMK), caspase-8 inhibitor (Z-IETD-FMK), caspase-9 inhibitor (Z-LEHD-FMK), caspase-10 inhibitor (Z-AVED-FMK), caspase-13 inhibitor (Z-LEED-FMK). QYC cells were incubated with caspase inhibitor at 50 mol/l for 2 h. QYC cells were then treated with 50 ng/ml huSM5-1 antibody. The inhibitory rates of these inhibitors were: 72% for pan-caspase inhibitor, 52% for caspase-10 inhibitor, 28% for caspase-6 inhibitor, 27% for caspase-1 inhibitor, 17% for caspase-8 inhibitor, 15% for caspase-13 inhibitor, 14% for caspase-4 inhibitor, 5% for caspase-9 inhibitor, 1% for caspase-2 inhibitor, 1% for caspase-3 inhibitor.

caspase-10 [1] = experiment: Caspase-10 colorimetric activity assay in huSM5-1 treated XJC cells; assay type: cell-based
Protocol: (§1) To further confirm that huSM5-1 induced apoptosis is caspase-10 related, caspase-10 color comparing analysis kit was used to examine the increase of caspase-10 bioactivity in QYC and XJC cells. Caspase-10 activity was examined with caspase-10 analysis kit (R&D, USA) according to manufacture's instruction. Cells were incubated with 50 ng/ml huSM5-1 antibody for a certain period of time. Cells were then centrifuged and lysed in a lysis buffer (25 ul/10^6 cells) on ice for 10 min. The lysates were centrifuged, and the supernatant was transferred into new tubes and kept on ice. The enzyme activity of caspase was examined on 96-well micro-titer plate. Each reaction included 50 μl supernatant from cell lysate, 50 μl 2× reaction buffer, 10 μl fresh DTT storage solution. In addition, 5 ul caspase-10 color-comparing substrate (AEVD-pNA) was added into the reaction. The plate was incubated at 37° C. for 1-2 h and absorbance at 405 nm was then measured. The increase of caspase-10 related activity was calculated according to the following equation: Caspase-10 activity (%)=(B−C)/(A−C)×100%
(§2) “A” represents OD value of supernatant from cell lysates without huSM5-1 antibody treatment; “B” represents OD value of supernatant from cell lysate treated with huSM5-1; “C” represents OD value of negative control. Each test was done in triplicate.

[2] = test system: hepatocellular carcinoma cell line QYC; experiment: Cell growth inhibition by huSM5-1, MTT assay; assay type: cell-based, human
Protocol: Cell growth inhibition by huSM5-1 antibody was tested using MTT assay. MTT assay is based on the principle that viable cells can reduce yellow MTT into blue purple crystals. Cells of interest (1×10^3) were incubated with various concentrations of antibodies. After a period of time, 20 μl MTT (0.5 mg/ml) was added into the cell culture medium and was incubated for 2 h. After the incubation, culture medium was removed and 150 μl DMSO was added to solubilize the MTT precipitate. The reduced MTT was examined by measuring absorbance at 490 nm using Benchmark optical absorption reading machine (Bio-Rad Laboratories). The cell growth inhibition was calculated according to the following equation: Inhibition (%)=(B−C)/(A−C)×100
“A” represents the OD value of cells without huSM5-1 treatment; “B” represents the OD value of huSM5-1 treated cells; and “C” represents the OD value of negative control. Each condition was performed in triplicate.
Growth inhibition by huSM5-1 were tested in four tumor cell lines (hepatocellular carcinoma cell QYC and XJC, breast cancer cell line MDA-MB-231, and melanoma cell line CRL-1872) using MTT assay. Cells were treated with different amount of huSM5-1 (50 ng/ml, 10 ng/ml, 1 ng/ml) for 24 h, 48 h, 72 h, and 96 h. The most inhibition occurred when the concentration of the antibody was at 50 ng/ml and after 72 h treatment.

melanoma cell line A2058 [3] = experiment: MTT assay of viable cells after huSM5-1 treatment; assay type: cell-based, human; details: 570 nm, final volume 500 μl, 24 h
Protocol: (§3) The melanoma cell line A2058 was expanded to 10^6/ml in RPMI-1640 culture medium. The cell suspension (20 μl) and different amount of huSM5-1 (0, 1, 5, 10, 20, 50, 100 μl) were added into each well of the 96 well plate. The antibody huSM5-1 was diluted in RPMI-1640 medium containning 10% FCS to reach a final concentration of 1 μg/μl before it was added into the well. RPMI-1640 medium containing 10% FCS was added to each well to make a final volume of 500 μl in each well. Each condition was performed in triplicate. Cells were incubated at 37° C. in a humidified incubator at 5% CO2 for 24 h. At the end of the incubation, cells were suspended and viable cells were examined under microscope or assessed using MTT.
MTT solution (5 mg/ml) was added into 0.2 ml cell suspension describe above at 1:10 dilution. The cells were then incubated at 37° C. for 30 min and optical adsorption at 570 nm for each sample was read.

melanoma cell line A2058 [4] = experiment: Viable cell count after huSM5-1 treatment; assay type: cell-based, human; details: final volume 500 μl, 24 h, relative to wells without huSM5-1
Protocol: as §3
Viable cells in 0.2 ml cell suspension from each well were counted. Viable cells are expressed as percentage of viable cells compared to the wells without addition of huSM5-1.

caspase-10 [5] = experiment: Caspase-10 colorimetric activity assay in huSM5-1 treated QYC cells; assay type: cell-based, human
Protocol: as §1, §2

## COC(=O)C[C@H](NC(=O)[C@H](C)NC(=O)[C@@H](NC(=O)OCc1ccccc1)C(C)C)C(=O)CF [pan-caspase inhibitor, Z-VAD-FMK] (Cbz-Val-Ala-Asp(OMe)-CH2F)
QYC cells
  inhibitory rate of huSM5-1 induced apoptosis: 72%

## COC(=O)CC[C@H](NC(=O)[C@H](CC(C)C)NC(=O)OCc1ccccc1)C(=O)N[C@@H](Cc1cnc[nH]1)C(=O)N[C@@H](CC(=O)OC)C(=O)CF [caspase-9 inhibitor, Z-LEHD-FMK] (Cbz-LE(OMe)HD(OMe)-CH2F)
QYC cells
  inhibitory rate of huSM5-1 induced apoptosis: 5%

## CC[C@H](C)[C@H](NC(=O)[C@H](CCC(=O)OC)NC(=O)[C@@H](NC(=O)OCc1ccccc1)C(C)C)C(=O)N[C@@H](CC(=O)OC)C(=O)CF [caspase-6 inhibitor, Z-VEID-FMK] (Cbz-VE(OMe)ID(OMe)-CH2F)
QYC cells
  inhibitory rate of huSM5-1 induced apoptosis: 28%

## COC(=O)CC[C@H](NC(=O)[C@H](Cc1c[nH]c2ccccc12)NC(=O)OCc1ccccc1)C(=O)N[C@@H](Cc1cnc[nH]1)C(=O)N[C@@H](CC(=O)OC)C(=O)CF [caspase-1 inhibitor, Z-WEHD-FMK] (Cbz-WE(OMe)HD(OMe)-CH2F)
QYC cells
  inhibitory rate of huSM5-1 induced apoptosis: 27%

## COC(=O)C[C@H](NC(=O)[C@H](C)NC(=O)[C@@H](NC(=O)[C@H](Cc1ccc(O)cc1)NC(=O)OCc1ccccc1)C(C)C)C(=O)CF [caspase-4 inhibitor, Z-YVAD-FMK]
QYC cells
  inhibitory rate of huSM5-1 induced apoptosis: 14%

## COC(=O)C[C@H](NC(=O)[C@H](C)NC(=O)[C@@H](NC(=O)[C@H](CC(=O)OC)NC(=O)[C@@H](NC(=O)OCc1ccccc1)C(C)C)C(C)C)C(=O)CF [caspase-2 inhibitor, Z-VDVAD-FMK] (Cbz-VD(OMe)VAD(OMe)-CH2F)
QYC cells
  inhibitory rate of huSM5-1 induced apoptosis: 1%

## COC(=O)CC[C@H](NC(=O)[C@H](CC(=O)OC)NC(=O)OCc1ccccc1)C(=O)N[C@H](C(=O)N[C@@H](CC(=O)OC)C(=O)CF)C(C)C [caspase-3 inhibitor, Z-DEVD-FMK]
QYC cells
  inhibitory rate of huSM5-1 induced apoptosis: 1%

## COC(=O)CCC(NC(=O)C(NC(=O)C(C)NC(=O)OCc1ccccc1)C(C)C)C(=O)NC(CC(=O)OC)C(=O)CF (stereo not drawn) [caspase-10 inhibitor, Z-AVED-FMK] (Cbz-AVE(OMe)D(OMe)-CH2F; configuration not given here)
QYC cells
  inhibitory rate of huSM5-1 induced apoptosis: 52%

## COC(=O)CC[C@H](NC(=O)[C@H](CCC(=O)OC)NC(=O)[C@H](CC(C)C)NC(=O)OCc1ccccc1)C(=O)N[C@@H](CC(=O)OC)C(=O)CF [caspase-13 inhibitor, Z-LEED-FMK] (Cbz-LE(OMe)E(OMe)D(OMe)-CH2F)
QYC cells
  inhibitory rate of huSM5-1 induced apoptosis: 15%

## CC[C@H](C)[C@H](NC(=O)OCc1ccccc1)C(=O)N[C@@H](CCC(=O)OC)C(=O)N[C@H](C(=O)N[C@@H](CC(=O)OC)C(=O)CF)[C@@H](C)O [caspase-8 inhibitor, Z-IETD-FMK] (Cbz-IE(OMe)TD(OMe)-CH2F)
QYC cells
  inhibitory rate of huSM5-1 induced apoptosis: 17%

B1: huSM5-1: human SM5-1 specific monoclonal antibody from phage library; VH SEQ ID NO:9, VL SEQ ID NO:10 (antibody, listed as Homo Sapiens, V domains shown)
VH: QVQLVESGGGVVQPGCSLRLSCSSSGYTFTSYTMHWVRQAPGKGLEWIGYINPYNDGGKYNEKFKWRFSISSDKSKNTLFLQSDSLTPEDTGVYYCARGSRYDWYGDYWGQGTPVTVSS
VL: DIQMTQSPSSLSGSVGDRVTITCDSSQSVLYSSKDDNYLAWYQQGPGKAPSLLIYYASDRESDVPSRFSGSGSGDDYTLTISSLQPEDAATYYCHQWFSSYTFDQGTKLNITR
caspase-10 [1]; 50 ng/ml huSM5-1, 48 h
  Caspase-10 activity (%): 17%
caspase-10 [1]; 50 ng/ml huSM5-1, 72 h
  Caspase-10 activity (%): 38%
caspase-10 [1]; 50 ng/ml huSM5-1, 96 h
  Caspase-10 activity (%): 28%
[2]; 1 ng/ml, 24 h
  growth inhibition: 7%
[2]; 1 ng/ml, 48 h
  growth inhibition: ~5%
[2]; 1 ng/ml, 72 h
  growth inhibition: 10%
[2]; 1 ng/ml, 96 h
  growth inhibition: 2.5%
[2]; 10 ng/ml, 24 h
  growth inhibition: 11%
[2]; 10 ng/ml, 48 h
  growth inhibition: ~17%
[2]; 10 ng/ml, 72 h
  growth inhibition: 19%
[2]; 10 ng/ml, 96 h
  growth inhibition: 11%
[2]; 50 ng/ml, 24 h
  growth inhibition: 29%
[2]; 50 ng/ml, 48 h
  growth inhibition: about 28%
[2]; 50 ng/ml, 72 h
  growth inhibition: 43%
[2]; 50 ng/ml, 96 h
  growth inhibition: 36%
Melanoma cell line A2058 [3]; huSM5-1 addition 1 ul (1 μg/μl)
  Optical adsorption (%): 96.3%
Melanoma cell line A2058 [3]; huSM5-1 addition 5 ul (1 μg/μl)
  Optical adsorption (%): 84.9%
Melanoma cell line A2058 [3]; huSM5-1 addition 10 ul (1 μg/μl)
  Optical adsorption (%): 66.2%
Melanoma cell line A2058 [3]; huSM5-1 addition 20 ul (1 μg/μl)
  Optical adsorption (%): 47.7%
Melanoma cell line A2058 [3]; huSM5-1 addition 50 ul (1 μg/μl)
  Optical adsorption (%): 33.6%
Melanoma cell line A2058 [3]; huSM5-1 addition 100 ul (1 μg/μl)
  Optical adsorption (%): 20.1%
Melanoma cell line A2058 [4]; huSM5-1 addition 1 μl (1 μg/μl)
  Cell survival (%): 87.8%
Melanoma cell line A2058 [4]; huSM5-1 addition 5 μl (1 μg/μl)
  Cell survival (%): 68.8%
Melanoma cell line A2058 [4]; huSM5-1 addition 10 μl (1 μg/μl)
  Cell survival (%): 53.2%
Melanoma cell line A2058 [4]; huSM5-1 addition 20 μl (1 μg/μl)
  Cell survival (%): 42.6%
Melanoma cell line A2058 [4]; huSM5-1 addition 50 μl (1 μg/μl)
  Cell survival (%): 32.6%
Melanoma cell line A2058 [4]; huSM5-1 addition 100 μl (1 μg/μl)
  Cell survival (%): 22.6%
caspase-10 [5]; 50 ng/ml huSM5-1, 48 h
  Caspase-10 activity (%): 13%
caspase-10 [5]; 50 ng/ml huSM5-1, 96 h
  Caspase-10 activity (%): 51%
